These results are taken from paper PMC4931317, “UtpA and UtpB chaperone nascent pre-ribosomal RNA and U3 snoRNA to initiate eukaryotic ribosome assembly” (Nature Communications, 2016).

B3: Utp9 (natural protein, S. cerevisiae, UniProt P38882 1-575, looked up)
chain: MGSSLDLVASFSHDSTRFAFQASVAQKNNVDIYPLNETKDYVVNSSLVSHIDYETNDMKVSDVIFFGWCSDLIDTQSSNIKRKLDEDEGTGESSEQRCENFFVNGFPDGRIVVYSSNGKDIVNIIKNKKEILGADTDESDIWILDSDKVVKKLQYNNSKPLKTFTLVDGKDDEIVHFQILHQNGTLLVCIITKQMVYIVDPSKRRPSTKYSFEISDAVACEFSSDGKYLLIANNEELIAYDLKEDSKLIQSWPVQVKTLKTLDDLIMALTTDGKINNYKIGEADKVCSIVVNEDLEIIDFTPINSKQQVLISWLNVNEPNFESISLKEIETQGYITINKNEKNNADEADQKKLEEKEEEAQPEVQHEKKETETKINKKVSKSDQVEIANILSSHLEANSTEILDDLMSGSWTEPEIKKFILTKINTVDHLSKIFLTISKSITQNPWNEENLLPLWLKWLLTLKSGELNSIKDKHTKKNCKHLKSALRSSEEILPVLLGIQGRLEMLRRQAKLREDLAQLSMQEGEDDEIEVIEHSNVISNPLQDQASPVEKLEPDSIVYANGESDEFVDASEYKD
notes: Utp9, S. cerevisiae, subunit of UtpA; No tag is named for it in either strain; strains are in Supplementary Data 1; source: endogenous, S. cerevisiae YSK32, co-purified with Utp10-GFP; overexpressed (galactose promoter) in S. cerevisiae YSK122, co-purified with Utp15-mCherry

The target in one assay is T1, Utp5 (S. cerevisiae, UniProt Q04177 1-643).
T1 construct: Utp5, S. cerevisiae, subunit of UtpA; No tag is named for it in either strain; strains are in Supplementary Data 1; source: endogenous, S. cerevisiae YSK32, co-purified with Utp10-GFP; overexpressed (galactose promoter) in S. cerevisiae YSK122, co-purified with Utp15-mCherry
T1 sequence (looked up): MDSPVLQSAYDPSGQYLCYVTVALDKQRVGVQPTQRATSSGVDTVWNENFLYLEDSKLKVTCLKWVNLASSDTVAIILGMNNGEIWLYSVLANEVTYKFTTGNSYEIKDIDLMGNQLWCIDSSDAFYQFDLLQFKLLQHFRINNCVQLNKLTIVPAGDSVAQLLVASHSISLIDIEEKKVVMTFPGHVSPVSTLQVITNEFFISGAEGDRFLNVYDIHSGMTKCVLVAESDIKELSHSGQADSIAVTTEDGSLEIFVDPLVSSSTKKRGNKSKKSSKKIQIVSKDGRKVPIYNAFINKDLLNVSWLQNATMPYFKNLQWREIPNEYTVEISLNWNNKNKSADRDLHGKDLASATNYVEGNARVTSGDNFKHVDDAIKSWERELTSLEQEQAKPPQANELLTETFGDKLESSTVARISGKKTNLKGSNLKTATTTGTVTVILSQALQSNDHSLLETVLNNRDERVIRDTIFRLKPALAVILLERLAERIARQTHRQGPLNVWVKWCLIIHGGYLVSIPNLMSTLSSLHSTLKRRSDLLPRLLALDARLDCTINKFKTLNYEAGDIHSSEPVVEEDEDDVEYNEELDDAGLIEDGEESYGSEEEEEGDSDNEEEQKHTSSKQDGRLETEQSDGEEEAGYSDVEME
The experiment in a line: pull-down; Utp4, Utp5, Utp8, Utp9 and Utp15-3myc-TEV-mCherry-3FLAG overexpressed in yeast YSK122; lysate on anti-mCherry nanobody sepharose; 50 mM HEPES-NaOH pH 7.6, 100 mM NaCl, 4 °C; TEV elution. The settings on record: partners not purified.

In the assay “Utp9” the target is B3. The description is as above. The settings on record: partners not purified.
For a further assay, the target named is T2, Utp8 (S. cerevisiae, UniProt P53276 1-713).
T2 construct: Utp8, S. cerevisiae, subunit of UtpA; No tag is named for it in either strain; strains are in Supplementary Data 1; source: endogenous, S. cerevisiae YSK32, co-purified with Utp10-GFP; overexpressed (galactose promoter) in S. cerevisiae YSK122, co-purified with Utp15-mCherry
T2 sequence (looked up): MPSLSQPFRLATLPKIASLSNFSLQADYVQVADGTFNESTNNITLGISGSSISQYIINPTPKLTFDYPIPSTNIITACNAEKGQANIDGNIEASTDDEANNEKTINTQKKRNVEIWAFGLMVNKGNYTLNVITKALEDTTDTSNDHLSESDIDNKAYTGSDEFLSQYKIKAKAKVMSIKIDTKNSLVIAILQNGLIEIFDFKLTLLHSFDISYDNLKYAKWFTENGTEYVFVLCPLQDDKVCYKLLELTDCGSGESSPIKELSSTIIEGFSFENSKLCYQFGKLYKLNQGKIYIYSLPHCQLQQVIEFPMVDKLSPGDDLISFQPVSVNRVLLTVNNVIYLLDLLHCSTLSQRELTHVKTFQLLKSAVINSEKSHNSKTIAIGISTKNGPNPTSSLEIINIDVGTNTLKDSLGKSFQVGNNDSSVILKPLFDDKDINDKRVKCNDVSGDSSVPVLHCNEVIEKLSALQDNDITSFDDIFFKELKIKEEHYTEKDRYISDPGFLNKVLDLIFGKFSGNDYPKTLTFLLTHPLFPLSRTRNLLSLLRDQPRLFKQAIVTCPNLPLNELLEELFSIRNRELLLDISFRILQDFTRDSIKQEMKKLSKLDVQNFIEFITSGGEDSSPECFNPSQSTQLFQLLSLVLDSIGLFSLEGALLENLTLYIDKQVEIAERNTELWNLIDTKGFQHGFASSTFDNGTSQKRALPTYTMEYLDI
The description is as above. The settings on record: partners not purified.

The next assay has as its target T3, Utp10-3C-GFP (S. cerevisiae, UniProt P42945 1-1769).
T3 construct: Utp10, S. cerevisiae, subunit of UtpA (200 kDa); GFP is joined through a 3C protease site; it holds the protein on the beads in a1-a3 and is cleaved off by 3C on elution, so it is absent in the SEC step and in the DSS cross-linking (a6); also called Utp10-GFP; Utp10-sbp-H14-3C-GFP; source: S. cerevisiae YSK32, C-terminal tag integrated in the genome, endogenous level; captured from lysate on …
Kind of assay: pull-down; UtpA held via Utp10-GFP on anti-GFP nanobody sepharose (purified at 200 mM NaCl), then incubated 7 h at 4 °C in buffer with 400 mM NaCl; 3C elution; Coomassie-stained SDS-PAGE. The settings on record: partners not purified.

For the next assay, the target named is T4, Utp4 (S. cerevisiae, UniProt Q06679 1-776).
T4 construct: Utp4, S. cerevisiae, subunit of UtpA; No tag is named for it in either strain; strains are in Supplementary Data 1; source: endogenous, S. cerevisiae YSK32, co-purified with Utp10-GFP; overexpressed (galactose promoter) in S. cerevisiae YSK122, co-purified with Utp15-mCherry
T4 sequence (looked up): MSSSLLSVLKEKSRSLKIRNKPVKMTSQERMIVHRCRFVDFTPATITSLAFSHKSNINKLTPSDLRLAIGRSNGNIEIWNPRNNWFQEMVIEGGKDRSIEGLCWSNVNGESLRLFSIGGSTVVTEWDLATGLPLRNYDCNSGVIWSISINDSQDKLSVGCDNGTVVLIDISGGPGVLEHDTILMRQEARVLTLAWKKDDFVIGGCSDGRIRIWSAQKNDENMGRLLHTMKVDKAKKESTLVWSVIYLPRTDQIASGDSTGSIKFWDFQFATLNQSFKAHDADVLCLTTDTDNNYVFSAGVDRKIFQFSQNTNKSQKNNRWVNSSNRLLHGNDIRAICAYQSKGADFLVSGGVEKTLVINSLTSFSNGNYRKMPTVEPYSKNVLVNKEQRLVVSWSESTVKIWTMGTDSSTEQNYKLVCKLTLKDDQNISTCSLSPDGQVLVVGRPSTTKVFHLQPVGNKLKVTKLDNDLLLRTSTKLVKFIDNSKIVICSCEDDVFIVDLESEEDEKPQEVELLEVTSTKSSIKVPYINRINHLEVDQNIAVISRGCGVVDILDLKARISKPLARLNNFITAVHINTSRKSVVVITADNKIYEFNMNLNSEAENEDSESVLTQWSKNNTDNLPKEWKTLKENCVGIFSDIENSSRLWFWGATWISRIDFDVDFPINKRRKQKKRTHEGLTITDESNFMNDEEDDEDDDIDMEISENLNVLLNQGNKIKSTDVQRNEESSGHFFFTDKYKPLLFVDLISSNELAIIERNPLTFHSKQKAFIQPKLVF
The experiment in a line: cross-linking; DSS (0.2 mM, H12/D12) cross-linking of SEC-purified endogenous UtpA, 25 °C, 30 min, 50 mM HEPES-NaOH pH 7.6, 200 mM NaCl, 1 mM EDTA; cross-linked peptides found by mass spectrometry (pLink). The settings on record: both partners purified.

T3 sequence (P42945 whole entry): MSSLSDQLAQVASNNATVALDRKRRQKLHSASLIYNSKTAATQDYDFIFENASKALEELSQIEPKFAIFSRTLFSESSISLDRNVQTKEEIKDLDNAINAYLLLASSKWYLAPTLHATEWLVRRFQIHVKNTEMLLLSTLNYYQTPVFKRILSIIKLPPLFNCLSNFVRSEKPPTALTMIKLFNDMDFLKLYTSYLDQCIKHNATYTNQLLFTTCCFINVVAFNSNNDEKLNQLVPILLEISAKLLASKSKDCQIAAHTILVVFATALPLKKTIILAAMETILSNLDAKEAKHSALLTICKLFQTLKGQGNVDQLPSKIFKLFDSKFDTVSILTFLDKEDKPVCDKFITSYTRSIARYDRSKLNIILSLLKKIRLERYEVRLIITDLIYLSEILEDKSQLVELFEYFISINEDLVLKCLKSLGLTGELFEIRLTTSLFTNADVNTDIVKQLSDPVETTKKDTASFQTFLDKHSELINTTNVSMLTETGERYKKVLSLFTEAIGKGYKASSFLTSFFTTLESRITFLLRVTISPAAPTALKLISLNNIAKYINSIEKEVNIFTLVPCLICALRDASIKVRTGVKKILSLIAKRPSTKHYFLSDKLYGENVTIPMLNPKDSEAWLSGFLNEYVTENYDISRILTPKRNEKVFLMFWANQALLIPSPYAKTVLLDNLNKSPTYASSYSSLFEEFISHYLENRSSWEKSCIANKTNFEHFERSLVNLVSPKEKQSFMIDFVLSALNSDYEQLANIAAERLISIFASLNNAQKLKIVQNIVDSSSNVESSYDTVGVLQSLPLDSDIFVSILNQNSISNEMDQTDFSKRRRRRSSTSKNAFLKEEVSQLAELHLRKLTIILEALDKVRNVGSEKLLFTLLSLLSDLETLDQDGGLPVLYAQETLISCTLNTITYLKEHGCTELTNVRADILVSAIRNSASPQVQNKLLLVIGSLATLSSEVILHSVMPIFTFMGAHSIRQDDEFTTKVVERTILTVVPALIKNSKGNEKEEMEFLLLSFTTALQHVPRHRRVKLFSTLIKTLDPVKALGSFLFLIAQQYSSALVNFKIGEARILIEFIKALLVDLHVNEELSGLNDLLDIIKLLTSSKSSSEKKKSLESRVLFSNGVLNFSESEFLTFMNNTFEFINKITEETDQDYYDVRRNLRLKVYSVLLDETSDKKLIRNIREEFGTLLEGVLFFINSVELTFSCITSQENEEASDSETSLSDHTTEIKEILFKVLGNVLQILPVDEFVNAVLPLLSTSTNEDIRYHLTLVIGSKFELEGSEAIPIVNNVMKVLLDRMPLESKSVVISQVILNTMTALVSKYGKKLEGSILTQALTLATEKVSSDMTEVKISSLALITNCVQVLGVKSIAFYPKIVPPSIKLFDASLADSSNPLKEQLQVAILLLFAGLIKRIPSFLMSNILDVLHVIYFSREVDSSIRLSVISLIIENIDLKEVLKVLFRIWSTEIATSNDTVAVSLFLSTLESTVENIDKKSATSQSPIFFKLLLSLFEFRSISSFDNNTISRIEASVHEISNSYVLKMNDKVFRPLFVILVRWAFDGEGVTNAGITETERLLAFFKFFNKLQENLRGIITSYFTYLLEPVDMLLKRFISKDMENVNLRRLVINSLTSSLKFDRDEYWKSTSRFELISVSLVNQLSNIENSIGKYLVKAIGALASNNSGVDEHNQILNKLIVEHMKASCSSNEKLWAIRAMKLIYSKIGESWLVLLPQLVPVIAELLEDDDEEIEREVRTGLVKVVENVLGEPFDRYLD

B1: Utp15-3myc-TEV-mCherry-3FLAG (overexpressed) (natural protein, S. cerevisiae, UniProt Q04305 1-513, looked up)
chain: MSTARPRIITSKAPLLPQQTTPEQRYWRQYTSAQLVKEHNSVTHISFNPQHPHDFAVTSSTRVQIFSSRTRQVIKTFSRFKDVVYSASFRSDGKLLCAGDATGLVSVYDSYNPRTILLSINASTHPTHVTKFHTQDNKILATASDDRVTRLWDISNAYEPQLELTGATDYVRTLSFIPAAPHLVATGSYDGLIRLYDTRSSGSTPIYSLNHDQPVENVIAVSPTQIVSCGGNNFKVWDLTSNKKLYERGNFNKAVTCLDYVENFDSPMQSALIASSLDGHVKVFDPLDNFQVKFGWKFSGPVLSCAVSPSTAQGNRHLVAGLSSGLLAIRTKKKEKRSSDKENAPASFNKNAKSNNFQRMMRGSEYQGDQEHIIHNDKVRSQRRMRAFERNINQFKWSEALDNAFVPGMAKELTLTVLQELRKRGKVRVALYGRDESTLEPLLNWCLKGIEDVRSASIVADWVAVVLELYGNTLESSPVLQELMIDLKTKVRHEIHKSKEAQRIEGMLQLLTS
notes: Utp15, S. cerevisiae, subunit of UtpA; Captured by mCherry in a4; the complex is eluted by TEV cleavage, so mCherry-3FLAG is off in the SEC step (a5); also called Utp15-TEV-mCherry; Utp15-mCherry; source: S. cerevisiae YSK122, overexpressed (galactose promoter); captured from lysate on anti-mCherry nanobody sepharose, TEV elution, SEC; not shown: 3myc, C-terminal, kept; mCherry, C-terminal, kept; …
In the case of B1, the binding result with Utp5, with Utp9 and with Utp8 was “binds” in each case.

B2: Utp17 (Nan1) (natural protein, S. cerevisiae, UniProt Q02931 1-896, looked up)
chain: MTQSLGIEQYKLSVVSGGKPALNNLSSVTGNKNIARLSQDQRNYIIPFNNQIKVYSVETRQCVKTLKFANNSLLSGIFLQEEENNESIVKILLGDITVPQQEDAHLITVFTNNGHVIVLNYKGKLVESPKHFKISLADEKLANVFHSEGNYRILTTFKDPSQKAHNSLQSYRLYALTFDDAKKQFEVAHQAEWHNVILSNISSNGKLLAHMCKDVSTKDHEHKSISVVSLFDDSVNLSFPLGSILSSQTQSLSYNTRYVSSMAIDNMGQQLAVGFASGVISIVSLADLQIRLLKWHIDSVLSLSFSHDGSYLLSGGWEKVMSLWQLETNSQQFLPRLNGIIIDCQVLGPQGNYYSLILQMTENNSNSDYQFLLLNASDLTSKLSINGPLPVFNSTIKHIQQPISAMNTKNSNSITSLNHSKKKQSRKLIKSRRQDFTTNVEINPINKNLYFPHISAVQIFDFYKNEQVNYQYLTSGVNNSMGKVRFELNLQDPIITDLKFTKDGQWMITYEIEYPPNDLLSSKDLTHILKFWTKNDNETNWNLKTKVINPHGISVPITKILPSPRSVNNSQGCLTADNNGGLKFWSFDSHESNWCLKKISLPNFNHFSNSVSLAWSQDGSLIFHGFDDKLQILDFDTFKKFESLENTKTVSEFTLDSEIQTVKLINDTNLIVATRTTLNAINLLRGQVINSFDLYPFVNGVYKNGHMDRLITCDERTGNIALVINQQLTDLDGVPTINYKSRIIIFDSDLSTKLGNFTHHEYISWIGWNYDTDFIFLDIESTLGVVGTTVNTQLSDEVNNEGILDGLVSNTITTSASNSDIFAEQLHKLSSRGKKSDTRDKNTNDNDEDEEDIALEFINGEKKDKLVNMNSFTSMFDNIQNVQMDTFFDRVMKVLT
notes: Utp17 (Nan1), S. cerevisiae, subunit of UtpA (101 kDa); source: endogenous, S. cerevisiae YSK32, co-purified with Utp10-GFP
In the case of B2, the binding result with Utp10-3C-GFP is on record as “binds”.
As for B3, in the assay with Utp4, the binding result was “binds”.
